Reference: patent US20120196307

T1: synaptotagmin-1, intact 65 kDa protein (rat), P21707
T1 chain: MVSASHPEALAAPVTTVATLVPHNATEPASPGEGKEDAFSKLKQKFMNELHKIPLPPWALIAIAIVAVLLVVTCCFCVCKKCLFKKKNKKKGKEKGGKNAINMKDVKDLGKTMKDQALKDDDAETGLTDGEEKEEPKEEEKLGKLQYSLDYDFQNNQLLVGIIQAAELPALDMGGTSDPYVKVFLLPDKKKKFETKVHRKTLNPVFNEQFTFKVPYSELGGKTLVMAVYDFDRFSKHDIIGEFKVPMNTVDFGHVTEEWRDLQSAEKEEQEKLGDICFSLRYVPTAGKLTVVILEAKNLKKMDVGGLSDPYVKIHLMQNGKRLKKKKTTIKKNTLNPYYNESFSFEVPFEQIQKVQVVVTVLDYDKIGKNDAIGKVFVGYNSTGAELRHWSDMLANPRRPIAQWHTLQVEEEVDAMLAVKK

B1: human erythrocyte calpain-1 (protein)
chain: SEEIITPVYCTGVSAQVQKQRARELGLGRHENAIKYLGQDYEQLRVRCLQSGTLFRDEAFPPVPQSLGYKDLGPNSSKTYGIKWKRPTELLSNPQFIVDGATRTDICQGALGDCWLLAAIASLTLNDTLLHRVVPHGQSFQNGYAGIFHFQLWQFGEWVDVVVDDLLPIKDGKLVFVHSAEGNEFWSALLEKAYAKVNGSYEALSGGSTSEGFEDFTGGVTEWYELRKAPSDLYQIILKALERGSLLGCSIDISSVLDMEAITFKKLVKGHAYSVTGAKQVNYRGQVVSLIRMRNPWGEVEWTGAWSDSSSEWNNVDPYERDQLRVKMEDGEFWMSFRDFMREFTRLEICNLTPDALKSRTIRKWNTTLYEGTWRRGSTAGGCRNYPATFWVNPQFKIRLDETDDPDDYGDRESGCSFVLALMQKHRRRERRFGRDMETIGFAVYEVPPELVGQPAVHLKRDFFLANASRARSEQFINLREVSTRFRLPPGEYVVVPSTFEPNKEGDFVLRFFSEKSAGTVELDDQIQANLPDEQVLSEEEIDENFKALFRQLAGEDMEISVKELRTILNRIISKHKDLRTKGFSLESCRSMVNLMDRDGNGKLGLVEFNILWNRIRNYLSIFRKFDLDKSGSMSAYEMRMAIESAGFKLNKKLYELIITRYSEPDLAVDFDNFVCCLVRLETMFRFFKTLDTDLDGVVTFDLFKWLQLTMFA
B2: human calpain-2 (Calbiochem, Cat#208715) (protein)
chain: AGIAAKLAKDREAAEGLGSHDRAIKYLNQDYEALRNECLEAGTLFQDPSFPAIPSALGFKELGPYSSKTRGIEWKRPTEICADPQFIIGGATRTDICQGALGDCWLLAAIASLTLNEEILARVVPLNQSFQENYAGIFHFQFWQYGEWVEVVVDDRLPTKDGELLFVHSAEGSEFWSALLEKAYAKINGCYEALSGGATTEGFEDFTGGIAEWYELKKPPPNLFKIIQKALQKGSLLGCSIDITSAADSEAITFQKLVKGHAYSVTGAEEVESNGSLQKLIRIRNPWGEVEWTGRWNDNCPSWNTIDPEERERLTRRHEDGEFWMSFSDFLRHYSRLEICNLTPDTLTSDTYKKWKLTKMDGNWRRGSTAGGCRNYPNTFWMNPQYLIKLEEEDEDEEDGESGCTFLVGLIQKHRRRQRKMGEDMHTIGFGIYEVPEELSGQTNIHLSKNFFLTNRARERSDTFINLREVLNRFKLPPGEYILVPSTFEPNKDGDFCIRVFSEKKADYQAVDDEIEANLEEFDISEDDIDDGFRRLFAQLAGEDAEISAFELQTILRRVLAKRQDIKSDGFSIETCKIMVDMLDSDGSGKLGLKEFYILWTKIQKYQKIYREIDVDRSGTMNSYEMRKALEEAGFKMPCQLHQVIVARFADDQLIIDFDNFVRCLVRLETLFKIFKQLDPENTGTIELDLISWLCFSVL
B3: rat recombinant calpain-2 (Calbiochem) (protein)
chain: MAGIAMKLAKDREAAEGLGSHERAIKYLNQDYETLRNECLEAGALFQDPSFPALPSSLGFKELGPYSSKTRGIEWKRPTEICADPQFIIGGATRTDICQGALGDCWLLAAIASLTLNEEILARVVPLDQSFQENYAGIFHFQFWQYGEWVEVVVDDRLPTKDGELLFVHSAEGSEFWSALLEKAYAKINGCYEALSGGATTEGFEDFTGGIAEWYELRKPPPNLFKIIQKALEKGSLLGCSIDITSAADSEAVTYQKLVKGHAYSVTGAEEVESSGSLQKLIRIRNPWGQVEWTGKWNDNCPSWNTVDPEVRANLTERQEDGEFWMSFSDFLRHYSRLEICNLTPDTLTCDSYKKWKLTKMDGNWRRGSTAGGCRNYPNTFWMNPQYLIKLEEEDEDDEDGERGCTFLVGLIQKHRRRQRKMGEDMHTIGFGIYEVPEELTGQTNIHLSKNFFLTTRARERSDTFINLREVLNRFKLPPGEYVLVPSTFEPHKNGDFCIRVFSEKKADYQTVDDEIEANIEEIEANEEDIGDGFRRLFAQLAGEDAEISAFELQTILRRVLAKREDIKSDGFSIETCKIMVDMLDEDGSGKLGLKEFYILWTKIQKYQKIYREIDVDRSGTMNSYEMRKALEEAGFKLPCQLHQVIVARFADDELIIDFDNFVRCLVRLEILFKIFKQLDPENTGTIQLDLISWLSFSVL
B4: recombinant human caspase-3 (Chemicon) (protein)
chain: SGISLDNSYKMDYPEMGLCIIINNKNFHKSTGMTSRSGTDVDAANLRETFRNLKYEVRNKNDLTREEIVELMRDVSKEDHSKRSSFVCVLLSHGEEGIIFGTNGPVDLKKITNFFRGDRCRSLTGKPKLFIIQACRGTELDCGIETDSGVDDDMACHKIPVEADFLYAYSTAPGYYSWRNSKDGSWFIQSLCAMLKQYADKLEFMHILTRVNRKVATEFESFSFDATFHAKKQIPCIVSMLTKELYFYH

Legend:
[1] = molecular target: T1, synaptotagmin-1, intact 65 kDa protein …
[2] = molecular target: CRMP-2 C-terminal 53-mer (500-552) synthetic peptide, Q16555
[3] = molecular target: collapsin response mediator protein-2, intact (rat), P47942

Protein | in vitro protease digestion of lysate, Western blot [1] | in vitro digestion of the synthetic peptide, Coomassie gel and N-terminal microsequencing [2] | in vitro protease digestion of naive brain lysate, Western blot [3]
B1 | Digestion with calpain-1 showed identical results (data not shown). | – | –
B2 | Syt1-blot also showed a calpain-concentration-dependent reduction of intact Syt1. Calpain treatment also produced a BDP identical to the 33 Syt1-fragment produced following TBI. | – | –
B3 | – | Purified CRMP-2 C-terminal 53-mer (500-552) peptide was synthesized and digested by rat calpain-2. | –
B4 | Syt1 was resistant to caspase-3 in the same samples | – | caspase-3 treatment did not produce the 55 kDa BDP
